Measurements taken from patent US9074002B2, “PTP1B inhibitors” (Cold Spring Harbor Laboratory, priority 2009, dated 2015).
Entries after “also recorded” stand apart in the source; their conditions may differ.

T1: endogenous PTP1B-OX (Homo sapiens, UniProt P18031)
T1 construct: endogenous in cells; host or cells: 293T cells (transfected only with the scFv intrabody)
T1 sequence (P18031 1-435): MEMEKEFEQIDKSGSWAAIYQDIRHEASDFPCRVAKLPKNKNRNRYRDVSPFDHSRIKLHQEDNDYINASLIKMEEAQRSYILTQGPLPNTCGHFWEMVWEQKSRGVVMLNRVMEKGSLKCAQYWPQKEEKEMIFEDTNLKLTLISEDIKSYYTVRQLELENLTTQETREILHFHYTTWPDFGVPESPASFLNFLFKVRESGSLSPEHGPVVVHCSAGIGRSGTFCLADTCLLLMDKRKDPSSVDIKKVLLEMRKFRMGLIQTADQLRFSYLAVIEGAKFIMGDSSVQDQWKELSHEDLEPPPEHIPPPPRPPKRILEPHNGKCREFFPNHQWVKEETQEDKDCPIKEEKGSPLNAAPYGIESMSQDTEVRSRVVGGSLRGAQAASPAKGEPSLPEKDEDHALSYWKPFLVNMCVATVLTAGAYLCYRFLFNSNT

T2: endogenous PTP1B under reducing conditions (Homo sapiens, UniProt P18031)
T2 construct: endogenous in cells; host or cells: 293T cells (transfected only with the scFv intrabody)
T2 sequence (P18031 1-435): T1 sequence (P18031 1-435)

T3: PTP1B (reduced, active) (Homo sapiens, UniProt P18031)
T3 construct: made in house; host or cells: E. coli BL21 (pET19b)
T3 sequence (P18031 3-277 limits assumed): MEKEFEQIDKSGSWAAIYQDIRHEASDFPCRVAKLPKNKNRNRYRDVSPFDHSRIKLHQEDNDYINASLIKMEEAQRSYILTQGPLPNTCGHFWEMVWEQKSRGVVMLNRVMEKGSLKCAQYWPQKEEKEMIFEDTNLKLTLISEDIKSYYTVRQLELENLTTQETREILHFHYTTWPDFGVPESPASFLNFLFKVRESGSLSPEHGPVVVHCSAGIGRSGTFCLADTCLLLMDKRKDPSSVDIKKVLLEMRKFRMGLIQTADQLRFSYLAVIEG

T4: PTP1B-OX (Homo sapiens, UniProt P18031)
T4 construct: made in house; host or cells: E. coli BL21 (pET19b)
T4 sequence (P18031 3-277): T3 sequence (P18031 3-277 limits assumed)

T5: PTP1B under reducing condition (Homo sapiens, UniProt P18031)
T5 construct: made in house; host or cells: E. coli BL21 (pET19b)
T5 sequence (P18031 3-277 limits assumed): T3 sequence (P18031 3-277 limits assumed)

B1: scFv102: scFv, SEQ ID NO: 130 and 162 (protein)
scFv: MKKTAIAIAVALAGFATVAQAALTQPSSVSANPGETVKITCSGGSGSYGWYQQESPGSAPVTVIYYNDKRPSDIPSRFSGSASGSTATLTIAGVRAEDEAVYFCGSWDSSTSAGIFGAGTALTVLGQSSRSSAVTLDESGGGLQTPGGGLSLVCKASGFSSSHGMGWMRQAPGKGLEFVAGIRSDGSSTAYGAAVDGRATITRDDGQSTVTLQLNNLRAEDTATYFCAKTNSYNSAGIIDAWGHGTEVIVSSTSGQAGQHHHHHHGAYPYDVPDYAS
B2: scFv67: scFv, SEQ ID NO: 100 and 161 (protein)
scFv: MKKTAIAIAVALAGFATVAQAALTQPSSVSANPGGTVKITCSGSSSAYGYGWYQQKSPGSAPVTVIYNNNKRPSNIPSRFSGSKSGSTGTLTITGVQAEDEAVYFCGSEDSSTDAIFGAGTTLTVLGQSSRSSAVTLDESGGGLQTPGGALSLVCKASGFTFSSYDMGWVRQAPGKGLEYVAGITNDGRYASYGSAVDGRATISRDNGQSTVRLQLNNLRAEDTGTYYCARDDGSGWTGNTIDTWGHGTEVIVSSTSGQAGQHHHHHHGAYPYDVPDYAS
B3: scFv34: scFv, SEQ ID NO: 67 and 163 (protein)
scFv: MKKTAIAIAVALAGFATVAQAALTQPSSVSANPGGTVEITCSGSSGSHGWYQQKSPGSAPVTVIYDNTNRPSDIPSRFSGSLSGSTATLTITGVQAEDEAVYYCGSFDTNSDSGYVGIFGARTTLTVLGQSSRSSTETLDDSGGGLQTPGGALSLVCNASGFTFISYDMFWVRQAPGKGLEFVTQINSAGSYTNYGSAVNGRATISRNDGQITVRLQLNDLTADDTGIYFCAESASGYDYSGSDAGDINAWGHGTEVVVSSTSGQAGQHHHHHHGAYPYDVPDYAS
B4: scFv20: scFv, SEQ ID NO: 53 (protein)
scFv: MKKTAIAIAVALAGFATVAQAALTQPSSVSANLGGIVEITCSGSSGSYGWYQQKSPGSAPVTVIYYNDKRPSNIPSRFSGSGSGSTNTLTIAGVRAEDEAVYYCGNEDSSGAAFGAGTTLTVLGQSSRSSAVTLDESGGGLQTPGGGLSLVCKASGFTFSDYDMFWVRQAPSKGLEFVAAITSSGTGTKYGAAVKGRATISKDNGQRTVRLQLNSLGAEDTGTYYCARSDADSTTWSAGEIDAWGHGTEVIVSSTSGQAGQHHHHHHGAYPYDVPDYAS

Experiments:
[1] = target: T1, endogenous PTP1B-OX; assay: Intrabody interaction in 293T cells treated with H2O2 (Ni-NTA pull down / anti-PTP1B immunoprecipitation); format: cell-based; conditions: 1 mM H2O2 5 minutes, FIGS. 11, 12
Procedure: (§1) One of the positive candidate scFvs (scFv45) was cloned in pcDNA3.2/V5-GW/D-TOPO expression vector and transiently expressed in mammalian cells as stable intracellular antibody (aka intrabody) (FIG. 10). To detect PTP1B-OX and scFv45 interaction in mammalian cells, scFv45 was overexpressed in 293T cells as described herein (See Example 4) and 48 hours post transfection the cells were serum-starved for 16 hours in growth medium (DMEM, low glucose) without serum (FBS), then incubated with 1 mM H2O2 (in growth medium without serum) for 5 minutes at 37° C. or treated with 20 mM NAC (in growth medium without serum) for 1 hour at 37° C. Cells treated with H2O2 were washed twice with cold (4° C.) PBS and lysed in lysis buffer (25 mM HEPES, pH 7.4, 150 mM NaCl, 0.25% Deoxychloate, 1% TritonX-100, 25 mM NaF, 10 mM MgCl2, 1 mM EDTA, 10% Glycerol, 0.5 mM PMSF, 10 mM Benzamidine, protease inhibitor cocktail). Cells treated with NAC were lysed with lysis buffer containing 2 mM TCEP to ensure a post-lysis reducing environment. Interaction between PTP1B and intrabody45 were tested by pulling down the protein complex from 1 mg of total cell lysate with Ni-NTA agarose or by immunoprecipitating PTP with anti-PTP1B (FG6). For the pull down experiment, Ni-NTA agarose beads were incubated with the lysates (both oxidized and reduced) at 4° C. Protein complex bound to the Ni-NTA agarose beads was pulled down and washed three times; first with lysis buffer containing 20 mM imidazole followed by two more washes with wash buffer (PBS, pH 7.4, 20 mM imidazole, 0.05% BSA, 0.05% Tween-20 and protease inhibitors). Applicant used 20 mM imidazole in the wash buffer to reduce the non-specific binding of proteins with the Ni-NTA agarose beads. The complex was eluted with wash buffer containing 500 mM imidazole with gentle shaking at 4° C. and the eluate was mixed with SDS sample buffer with DTT. For the immunoprecipitation experiments, 1 mg of total cell lystates (both oxidized and reduced) was incubated with anti-PTP1B antibody (FG6) at 4° C. The interacting protein complex was immunoprecipitated after incubating the lysate-antibody mixture with protein A/G Sepharose at 4° C. After immunoprecipitation, Sepharose beads were washed three times; first with lysis buffer followed by two more washes with wash buffer (PBS, pH 7.4, 0.05% BSA, 0.05% Tween-20 and protease inhibitors). The Sepharose beads were then heated at 90° C. in 2×SDS sample buffer with DTT. Proteins from the pulled down or immunoprecipitated complex were separated by SDS-PAGE. PTP was detected with anti-PTP1B antibody (FG6) and the intrabodies were detected with anti-HA (3F10)-HRP antibody [anti-HA (3F10)-HRP, Roche] by immunoblotting.
In the initial in vitro phosphatase screening assay using reversibly oxidized (with H2O2) recombinant PTP1B, Applicant found four different PTP1B-OX specific scFvs (scFv45, scFv57, scFv64 and scFv106) from the initial pool of 12 different scFvs. […] Applicant has also shown that scFv45, expressed as an intrabody in mammalian cells, can bind to endogenous PTP1B-OX but not endogenous PTP under reducing conditions. Further assessment was carried out to identify additional PTP1B-OX-specific intrabodies. Additional scFvs have been subcloned in pcDNA3.2/V5-GW/D-TOPO mammalian expression vector (FIG. 10) from their respective phagemid constructs. After transient overexpression of these scFvs as intrabodies in 293T cells, the interaction between endogenous PTP1B and these intrabodies in both H2O2-treated cells and cells was observed under reducing condition (treated with NAC and lysed with lysis buffer containing TCEP). […] All can be used in the methods and compositions described herein. Additional scFvs, such as some or all of the 137 selected individual scFvs from the library, can be similarly tested by in vitro screening and/or by binding assay in mammalian cells.

[2] = target: T2, endogenous PTP1B under reducing conditions; assay: Intrabody interaction in 293T cells under reducing condition (NAC, TCEP) (Ni-NTA pull down / immunoprecipitation); format: cell-based; conditions: 20 mM NAC, lysis buffer with 2 mM TCEP, FIGS. 11, 12
Procedure: as §1
In the initial in vitro phosphatase screening assay using reversibly oxidized (with H2O2) recombinant PTP1B, Applicant found four different PTP1B-OX specific scFvs (scFv45, scFv57, scFv64 and scFv106) from the initial pool of 12 different scFvs. […] Applicant has also shown that scFv45, expressed as an intrabody in mammalian cells, can bind to endogenous PTP1B-OX but not endogenous PTP under reducing conditions. Further assessment was carried out to identify additional PTP1B-OX-specific intrabodies. Additional scFvs have been subcloned in pcDNA3.2/V5-GW/D-TOPO mammalian expression vector (FIG. 10) from their respective phagemid constructs. […]

[3] = target: T3, PTP1B (reduced, active); assay: Direct effect of scFvs/antibodies on PTP1B phosphatase activity (32P-pTyr-RCML substrate); format: biochemical; conditions: 32P-labeled pTyr-RCML substrate, FIG. 1
Procedure: Applicant's hypothesis was that scFvs that are able to bind to and stabilize the oxidized conformation of PTP1B in solution would inhibit reactivation by reducing agent, but have no direct inhibitory effect on phosphatase activity in assays in vitro. Activity was measured using ^32P-labeled pTyr-Reduced Carboxamidomethylated and Maleylated Lysozyme as substrate. Applicant established conditions in which wild type PTP1B could be reversibly oxidized in vitro. PTP1B was inactivated following addition of H2O2. […] Applicant validated this approach further, by testing the effects of expressing one of the scFvs (scFv45) as a single chain antibody fragment “intrabody” to PTP1B, using 293T cells as the expression system. This intrabody was expressed transiently and then tested for effects on insulin signaling, focusing initially on the tyrosine phosphorylation status of the beta-subunit of the insulin receptor and insulin receptor substrate (IRS-1).
Reduced carboxamidomethylated and maleylated lysozyme (RCML) was labeled with ^32P using recombinant GST-FER kinase to stoichiometries up to 0.8 (mol ^32P incorporated/mol of protein). This ^32P-Labeled phospho-tyrosyl RCML was used as the substrate in the in-solution phosphatase assay for screening the conformation sensor scFvs. Recombinant PTP1B was reversibly oxidized and transiently inactivated with H2O2 (5× molar excess of the protein). […] Purified bacterially expressed scFvs (100× molar excess of PTP1B) were incubated with PTP after H2O2 treatment and its removal and the effect of individual scFv on stabilizing the reversibly oxidized conformation was assessed by the phosphatase assay under reducing condition.
In order to screen the isolated scFvs for those that inhibit reactivation of PTP1B-OX by reducing agent, but have no direct inhibitory effect on phosphatase activity in assays in vitro, the effect of six scFvs (scFv20, scFv34, scFv45, scFv57, scFv64 and scFv106) on PTP1B activity was determined. PTP1B activity was measured using 32P-labeled pTyr-Reduced Carboxamidomethylated and Maleylated Lysozyme as substrate (FIGS. 1 and 2). Addition of the reducing agent TCEP alone had no substantial effect in PTP1B activity was assessed.

[4] = target: T4, PTP1B-OX; assay: In vitro binding assay, purified recombinant PTP1B (37 kDa) and purified scFv, Ni-NTA pull down; conditions: purified proteins, scFv in molar excess, 2 hours at 4° C.; FIG. 9
Procedure: (§2) They established conditions in which PTP1B is reversibly oxidized by H2O2 in solution (FIG. 8). An artificial protein substrate RCML, in which tyrosine was phosphorylated with ^32P using recombinant GST-FER kinase was used in this assay to measure the phosphatase activity. Recombinant PTP (37 kDa) was incubated with increasing concentration (50 μM to 100 mM) of H2O2. A quick buffer exchange was done to remove the H2O2 and reducing agent (TCEP) was added to reactivate the enzyme.
(§3) In the in vitro binding assay, purified PTP was reversibly oxidized with […] followed by a quick buffer exchange to remove H2O2 (FIG. 8). Purified scFv was incubated in molar excess with PTP1B-OX or with PTP under reducing condition (with 2 mM TCEP) in binding buffer (20 mM HEPES, pH 7.4, 300 mM NaCl, 0.05% BSA, 0.05% Tween-20 and 10 mM imidazole) for 2 hours at 4° C. Ni-NTA agarose was added and incubated for one hour at 4° C. Protein complex bound to Ni-NTA agarose beads was pulled down and washed (three times, 5 minutes each, at 4° C.) with binding buffer containing 20 mM imidazole to reduce non-specific binding to the beads. The protein complex was eluted from the Ni-NTA agarose beads with 500 mM imidazole (in binding buffer, pH 7.4) for 15 minutes at 4° C. with gentle shaking. The complex was separated by SDS-PAGE and PTP1B was detected with anti-PTP1B antibody (FG6) and scFv was detected with anti-HA antibody [anti-HA (3F10)-HRP, Roche] by immunoblotting. Eight different scFvs (scFvs 20, 21, 24, 28, 45, 48, 57, and 105), expressed and purified from bacterial cultures were tested by this in vitro binding experiment.

[5] = target: T5, PTP1B under reducing condition; assay: In vitro binding assay, purified recombinant PTP1B (37 kDa) and purified scFv, Ni-NTA pull down, reducing condition; conditions: with 2 mM TCEP; FIG. 9
Procedure: as §2, §3

Molecule | binding of intrabody to endogenous PTP1B-OX [1] | binding of intrabody to endogenous PTP1B under reducing conditions [2] | direct effect on PTP1B activity [3] | binding to PTP1B-OX in vitro [4] | binding to PTP1B under reducing condition in vitro [5]
B1 | bound to endogenous PTP1B-OX strongly; also recorded: co-pulldown of PTP1B-OX in the presence of H2O2 | not in the presence of NAC and TCEP | – | – | –
B2 | bound to endogenous PTP1B-OX strongly; also recorded: co-pulldown of PTP1B-OX in the presence of H2O2 | not in the presence of NAC and TCEP | – | – | –
B3 | bound weakly to PTP1B-OX | – | no direct inhibition of PTP activity | – | –
B4 | – | – | no direct inhibition of PTP activity | no significant binding | no significant binding
